# Laboratory results: patent US20190002846A1, “POLYPEPTIDES HAVING DEMETHYLATING ACTIVITY” (Genencor International B.V., priority 2015, published 2019)
# T1: RAC incubated with LPMO9B (Thermothelomyces thermophilus, UniProt G2QCJ3)
# T1 construct: made in house; host or cells: Myceliophthora thermophila C1 strain W1L#100.1Δpyr5ΔAlp1
# T1 sequence (G2QCJ3 19-323): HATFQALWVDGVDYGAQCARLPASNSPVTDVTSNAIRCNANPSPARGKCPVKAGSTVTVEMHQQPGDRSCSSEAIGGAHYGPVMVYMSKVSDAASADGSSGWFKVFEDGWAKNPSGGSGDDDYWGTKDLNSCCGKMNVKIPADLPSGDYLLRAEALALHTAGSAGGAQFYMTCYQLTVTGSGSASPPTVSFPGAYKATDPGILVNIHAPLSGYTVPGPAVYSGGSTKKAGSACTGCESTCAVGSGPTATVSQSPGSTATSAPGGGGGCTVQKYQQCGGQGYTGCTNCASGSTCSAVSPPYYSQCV
# Columns and labels:
# [1] = Catechol oxidase activity assay: initial rate of 3-methoxycatechol oxidation at 400 nm (pH, copper and temperature optima); format: biochemical
# Description: PPO activity was determined by measuring the initial rate of 3-methoxycatechol oxidation at 400 nm (extinction coefficient used: ε 1200 M^−1cm^−1). One unit of activity is defined as the amount of PPO activity that oxidizes 1 μmol of 3-methoxycatechol to quinone per minute. Substrate was used at a concentration of 4 mM.
# The pH optima were determined by measuring the initial rate of 3-methoxycatechol oxidation with varying pHs, at room temperature and using a CuSO4 concentration of 10 μM. The pH was varied in the range of pH3-9 using Carmody buffers. Enzyme loading was applied resulting in A400 absorbance values in the range of 0.1-1. Protein concentration was determined using the BCA method.
# Optimal copper concentrations for the PPOs were determined at the optimal pH by varying the concentration of CuSO4 in the range of 1-1000 μM. In these experiments the pH was controlled using 50 mM Bis-Tris buffer pH 7.0.
# Temperature optima were determined by measuring A400 absorbance after 1 h incubation at temperatures in the range of 20 to 70° C. In these experiments the pH was controlled using 50 mM Bis-Tris buffer pH 7.0. Copper concentrations of (20 or 50 μM) were used to prevent chemical oxidation as background activity at higher copper concentrations.
# [2] = Conversion of syringic acid by purified PPO, difference absorbance spectra after 24 h; format: biochemical; conditions: 12 mM syringic acid, purified enzyme 0.048 g/L, pH 6.5, 10 μM CuSO4, room temperature
# Description: Syringic acid (12 mM, 2.38 g/L) was incubated with PPO7 and PPO2 from Example 5 (0.048 g/L, 2% loading (w/w)) in 50 mM BisTris buffer pH 6.5 with 10 μM CuSO4. Blank prepared without the addition of enzyme was included. Incubations were performed in HPLC vials with a total of 750 μL reaction volume at room temperature for 24 h. The reaction was stopped by adding 21 μL 1M HCl to lower the pH to ˜3. Samples were filtrated and absorbance spectra were measured (230-1000 nm, 2 nm interval). […] It is to be noted that any change in absorbance in time indicates syringic acid conversion.
# [3] = Conversion of syringic acid, sinapic acid and syringol by crude PPOs, absorbance at 400 nm; format: biochemical; conditions: 4 mM substrate, crude PPO 8.2 μg/mL, pH 6.0 or 7.0, 50 μM CuSO4, room temperature, 2, 22 and 118 h
# Description: Syringic acid, sinapic acid and syringol (4 mM) were incubated with crude PPO2, 4, 6 and 7 from Example 5 in 100 mM BisTris buffer pH 6.0 or 7.0 with 50 μM CuSO4. Crude PPOs were dosed on target protein with a final concentration of 8.2 μg/mL. Substrate blanks prepared without the addition of enzyme and enzyme blanks without the addition of substrate were included. Incubations were performed in microtiterplates with a total reaction volume of 150 μL at room temperature for approximately 120 h. After 2, 22 and 118 h absorbance at 400 nm was measured.
# [4] = Methanol formation by GC, summary statement for lignin and lignin-derived compounds; format: biochemical; conditions: lignin and lignin-derived compounds 10 g/L, enzyme 0.5 g/L
# Description: Model compounds syringic acid, syringol, 1,3-dimethoxybenzene and 3,5-dimethoxybenzoic acid (12 mM) were incubated with PPO7 from Example 2 (2% loading (w/w)) in 50 mM BisTris buffer pH 6.5 with 10 μM CuSO4. For syringic acid and syringol PPO2 from Example 2 was included as a control. Lignin and lignin-derived compounds (10 g/L) were incubated with PPO7 from Example 2 (0.5 g/L, 5% loading (w/w)). PPO2 from Example 2 was included as a control and incubated using the same conditions. Blanks prepared without the addition of enzyme were included. Incubations were performed in GC headspace vials with a total of 1 mL reaction volume at 25° C. for approximately 48 h while shaking. The reaction was stopped by adding 28 μL 1M HCl to lower the pH to ˜3. Samples were analyzed by GC for methanol formation. A calibration range of 0.23 to 11.5 mM methanol in buffer with HCl was included.
# [5] = target: T1, RAC incubated with LPMO9B; test: RAC hydrolysis assay with LPMO9B and PPO2, PPO7 or AbTyr in the presence of sinapic acid or syringic acid; format: biochemical, Myceliophthora thermophila; conditions: LPMO9B 5 μg/ml alone = 100%, or with added enzyme, pH 5.0, 50° C., 24 h
# Description: Reducing agents sinapic acid and syringic acid were obtained from Sigma-Aldrich (St. Louis, Mo., USA). RAC was prepared from Avicel by swelling it in phosphoric acid, (Zhang Y H P, Cui J, Lynd L R, & Kuang L R (2006) A transition from cellulose swelling to cellulose dissolution by o-phosphoric acid: Evidence from enzymatic hydrolysis and supramolecular structure. Biomacromolecules 7(2):644-648.). RAC was dissolved in 50 mM phospate buffer (pH 5.0) to a final concentration of 1.5 mg/ml. Copper chloride was added to a final concentration of 2.5 μM and dimethoxy containg reducing agent sinapic acid or syringic acid to a final concentration of 2 mM. LPMO9B (5 μg/ml) with or without PPO2 (5 μg/ml), PPO7 (5 μg/ml) or AbTyr (7.5 U/ml) were added and incubated for 24 h at 50° C. in a head-over-tail rotator in portions of 1 mL total volume (Stuart® rotator, Bibby Scientific LTD, Stone, UK) at 20 rpm. Products were analysed by HPAEC and MALDI-TOF MS as described previously. (Frommhagen M, Sforza S, Westphal A H, Visser J, Hinz S W, Koetsier M J et al. Discovery of the combined oxidative cleavage of plant xylan and cellulose by a new fungal polysaccharide monooxygenase. Biotechnology for Biofuels. 2015; 8:101. doi:10.1186/s13068-015-0284-1). The Activity denoted as “Activity*” represents total release of non-oxidized and C1-oxidized gluco-oligosaccharides from RAC incubated with LPMO9B in the presence of sinapic or syringic acid as a reducing agent and with addition of either AbTyr, PPO7 or PPO2. […] Standard deviations were less than 2%.
molecule,measurement,setting,value
"PPO7: Myceliophthora thermophila C1 polyphenoloxidase with demethylating activity, mature form SEQ ID NO: 45 (protein, listed as Myceliophthora thermophila) NPMHKRWKPNAPRNPDFPLDEVDKLEESIMPNVEAWMSKRPAKYSNCTLENAGIRREWSDLSVDERKEYISAVLCLQSKPSKIPEGEVPGALSRFDDFVATHMTMAGQLHSPTNLFAAHRYFIHAYEKALREECGYKGYQPYMNYDRYADDPLNTPLFDGSDSSMSGNGGPYNYSGIPQPFPKPYNLIPPAGGGGCVTEGPFRDMVVSLGPKGGLFHDIPRNPRADGLGSNPRCLRRDVNKYSARGARANYTYSAIMDNPDIDSFYNRYMGMPQLKGDPYPWGLHSSGHYLIGGDPGGDFYCSPGDPLFYFHHGMLDRVWWIWQMQDPENRVQAVPGTNTMPMPPLMAANLESEAAATTTHKRAVNVSDLVVDLGWTAPPVKLVDLNEQLGGLGGELCYIYV",pHopt,"[1]; 3-methoxycatechol oxidation, room temperature, 10 μM CuSO4, Carmody buffers pH3-9",7.0
same,T range,[1]; >50% of maximum activity,20-55 °C
same,pH range,[1]; >50% of maximum activity,6.5-8.0
same,[CuSO4] range,[1]; >90% of maximum activity,100 to 1000 µM
same,Topt,"[1]; A400 after 1 h incubation, 20 to 70° C., 50 mM Bis-Tris pH 7.0, 20 or 50 μM copper",40 °C
same,[CuSO4]opt,"[1]; at optimal pH, 50 mM Bis-Tris buffer pH 7.0, CuSO4 varied 1-1000 μM",400 µM
same,Spectral change caused by reaction products,[2],spectral increase between 300 and 500 nm
same,Syringic acid conversion: negative peak in the difference absorbance spectra between 230 and 300 nm,[2],more significant for PPO7 than for PPO2
same,Conversion of substrates (absorbance at 400 nm),[3],"able to convert syringic acid, sinapic acid and syringol"
same,Methanol concentration compared to the blank (in words),[4],increased methanol concentration compared to the blank
same,Activity: total release of non-oxidized and C1-oxidized gluco-oligosaccharides from RAC,[5]; reducing agent sinapic acid 2 mM,195%
same,Activity: total release of non-oxidized and C1-oxidized gluco-oligosaccharides from RAC,[5]; reducing agent syringic acid 2 mM,142%
